Data reported in patent publication US20110294144.

Tested on: recombinant tau protein (Wako Pure Chemical Industries, Ltd.)

recombinant PRKX protein (Invitrogen)
S214 phosphorylation of tau, in vitro kinase reaction of the two recombinant proteins, Western blot: the amount of S214 phosphorylation was enhanced by the addition of ATP as compared to the control without addition of ATP
